# Patent US20210070829A1 (ZHEJIANG DOER BIOLOGICS, published 2021)
# B1: C227 L12F5L14M4 (Fc fusion)
# chain: HSQGTFTSDYSKYLDSQAAQDFVQWLMNTGPSSGAPPSGGGGAGGGGAGGGGAAERKCCVECPPCPAPPVAGPSVFLFPPKPKDTLMISRTPEVTCVVVDVSHEDPEVQFNWYVDGVEVHNAKTKPREEQFNSTFRVVSVLTVVHQDWLNGKEYKCKVSNKGLPSSIEKTISKTKGQPREPQVYTLPPSREEMTKNQVSLTCLVKGFYPSDIAVEWESNGQPENNYKTTPPMLDSDGSFFLYSKLTVDKSRWQQGNVFSCSVMHEALHNHYTQKSLSLSPGGGGGAGGGGAGGGGASHPIPDSSPLLQFGGQVRQRYLYTDDAQQTEAHLEIREDGTVGGAADQSPESLLQLKALKPGVIQILGVKTSRFLCQRPDGALYGSLHFDPEACSFRERLLEDGYNVYQSEAHGLPLHCPGNKSPHRDPAPRGPCRFLPLPGLPPALPEPPGILAPQPPDVGSSDPLAMVGGSQGRSPSYES
# B2: C462 L10F5L10M3 (Fc fusion)
# chain: HSQGTFTSDYSKYLDEEAAQDFVQWLMNGGPSSGAPPPSGGGGAGGGGAGGGGAERKCCVECPPCPAPPVAGPSVFLFPPKPKDTLMISRTPEVTCVVVDVSHEDPEVQFNWYVDGVEVHNAKTKPREEQFNSTFRVVSVLTVVHQDWLNGKEYKCKVSNKGLPSSIEKTISKTKGQPREPQVYTLPPSREEMTKNQVSLTCLVKGFYPSDIAVEWESNGQPENNYKTTPPMLDSDGSFFLYSKLTVDKSRWQQGNVFSCSVMHEALHNHYTQKSLSLSPGGGGGAGGGGAGGGGADSSPLLQFGGQVRQRYLYTDDAQQTEAHLEIREDGTVGGAADQSPESLLQLKALKPGVIQILGVKTSRFLCQRPDGALYGSLHFDPEACSFRELLLEDGYNVYQSEAHGLPLHCPGNKSPHRDPAPRGPCRFLPLPGLPPALPEPPGILAPQPPDVGSSDPLAMVGPSQGRSPSYAS
# B3: C462 L13F10L9M4 (Fc fusion)
# chain: HSQGTFTSDYSKYLDEEAAQDFVQWLMNGGPSSGAPPPSGGGGSGGGGSGGGGSAESKYGPPCPPCPAPEAAGGPSVFLFPPKPKDTLMISRTPEVTCVVVDVSQEDPEVQFNWYVDGVEVHNAKTKPREEQFASTYRVVSVLTVLHQDWLNGKEYKCKVSNKGLPSSIEKTISKAKGQPREPQVYTLPPSQEEMTKNQVSLTCLVKGFYPSDIAVEWESNGQPENNYKTTPPVLDSDGSFFLYSRLTVDKSRWQEGNVFSCSVMHEALHNHYTQKSLSLSLGGGGGSGGGGSGGGGSHPIPDSSPLLQFGGQVRQRYLYTDDAQQTEAHLEIREDGTVGGAADQSPESLLQLKALKPGVIQILGVKTSRFLCQRPDGALYGSLHFDPEACSFRERLLEDGYNVYQSEAHGLPLHCPGNKSPHRDPAPRGPCRFLPLPGLPPALPEPPGILAPQPPDVGSSDPLAMVGGSQGRSPSYES
# B4: C627 L12F10L9M6 (Fc fusion)
# chain: HSQGTFTSDYSKQMDSQRAQDFVQWLMNGGPSSGAPPPSGGGGAGGGGAGGGGAAESKYGPPCPPCPAPEAAGGPSVFLFPPKPKDTLMISRTPEVTCVVVDVSQEDPEVQFNWYVDGVEVHNAKTKPREEQFASTYRVVSVLTVLHQDWLNGKEYKCKVSNKGLPSSIEKTISKAKGQPREPQVYTLPPSQEEMTKNQVSLTCLVKGFYPSDIAVEWESNGQPENNYKTTPPVLDSDGSFFLYSRLTVDKSRWQEGNVFSCSVMHEALHNHYTQKSLSLSLGGGGGSGGGGSGGGGSHPIPDSSPLLQFGGQVRQRYLYTDDAQQTEAHLEIREDGTVGGAADQSPESLLQLKALKPGVIQILGVKTSRFLCQRPDGALYGSLHFDPEACSFRERLLEDGYNVYQSEAHGLPLHCPGNKSPHRDPAPRGPCRFLPLPGLPPALPEPPGILAPQPPDVGSSDPLSMVEPSQGRSPSYAS
# B5: C711 L13F5L10M4 (Fc fusion)
# chain: HSQGTFTSDYSKYLDSQAAQDFVQWLMNTKRNRNNIAGGGGSGGGGSGGGGSAERKCCVECPPCPAPPVAGPSVFLFPPKPKDTLMISRTPEVTCVVVDVSHEDPEVQFNWYVDGVEVHNAKTKPREEQFNSTFRVVSVLTVVHQDWLNGKEYKCKVSNKGLPSSIEKTISKTKGQPREPQVYTLPPSREEMTKNQVSLTCLVKGFYPSDIAVEWESNGQPENNYKTTPPMLDSDGSFFLYSKLTVDKSRWQQGNVFSCSVMHEALHNHYTQKSLSLSPGGGGGAGGGGAGGGGAHPIPDSSPLLQFGGQVRQRYLYTDDAQQTEAHLEIREDGTVGGAADQSPESLLQLKALKPGVIQILGVKTSRFLCQRPDGALYGSLHFDPEACSFRERLLEDGYNVYQSEAHGLPLHCPGNKSPHRDPAPRGPCRFLPLPGLPPALPEPPGILAPQPPDVGSSDPLAMVGGSQGRSPSYES
# B6: C788 L1F5L5M5 (Fc fusion)
# chain: HSQGTFTSDYSKQMDSQRAQDFVQWLMNTKRNRNNIAGGGGSERKCCVECPPCPAPPVAGPSVFLFPPKPKDTLMISRTPEVTCVVVDVSHEDPEVQFNWYVDGVEVHNAKTKPREEQFNSTFRVVSVLTVVHQDWLNGKEYKCKVSNKGLPSSIEKTISKTKGQPREPQVYTLPPSREEMTKNQVSLTCLVKGFYPSDIAVEWESNGQPENNYKTTPPMLDSDGSFFLYSKLTVDKSRWQQGNVFSCSVMHEALHNHYTQKSLSLSPGGGGGSGGGGSHPIPDSSPLLQFGGQVRQRYLYTDDAQQTEAHLEIREDGTVGGAEDQSPESLLQLKALKPGVIQILGVKTSRFLCQRPDGALYGSLHFDPEACSFRERLLEDGYNVYQSEAHGLPLHCPGNKSPHRDPAPRGPCRFLPLPGLPPALPEPPGILAPQPPDVGSSDPLSMVGGSQGRSPSYES
# B7: C225L10F10 (Fc fusion)
# chain: HSQGTFTSDYSKYLDERAAQDFVQWLMNTGPSSGAPPPSGGGGAGGGGAGGGGAESKYGPPCPPCPAPEAAGGPSVFLFPPKPKDTLMISRTPEVTCVVVDVSQEDPEVQFNWYVDGVEVHNAKTKPREEQFASTYRVVSVLTVLHQDWLNGKEYKCKVSNKGLPSSIEKTISKAKGQPREPQVYTLPPSQEEMTKNQVSLTCLVKGFYPSDIAVEWESNGQPENNYKTTPPVLDSDGSFFLYSRLTVDKSRWQEGNVFSCSVMHEALHNHYTQKSLSLSLG
# B8: C788L1F5 (Fc fusion)
# chain: HSQGTFTSDYSKQMDSQRAQDFVQWLMNTKRNRNNIAGGGGSERKCCVECPPCPAPPVAGPSVFLFPPKPKDTLMISRTPEVTCVVVDVSHEDPEVQFNWYVDGVEVHNAKTKPREEQFNSTFRVVSVLTVVHQDWLNGKEYKCKVSNKGLPSSIEKTISKTKGQPREPQVYTLPPSREEMTKNQVSLTCLVKGFYPSDIAVEWESNGQPENNYKTTPPMLDSDGSFFLYSKLTVDKSRWQQGNVFSCSVMHEALHNHYTQKSLSLSPG
# B9: C627L13F10 (Fc fusion)
# chain: HSQGTFTSDYSKQMDSQRAQDFVQWLMNGGPSSGAPPPSGGGGAGGGGAGGGGAAESKYGPPCPPCPAPEAAGGPSVFLFPPKPKDTLMISRTPEVTCVVVDVSQEDPEVQFNWYVDGVEVHNAKTKPREEQFASTYRVVSVLTVLHQDWLNGKEYKCKVSNKGLPSSIEKTISKAKGQPREPQVYTLPPSQEEMTKNQVSLTCLVKGFYPSDIAVEWESNGQPENNYKTTPPVLDSDGSFFLYSRLTVDKSRWQEGNVFSCSVMHEALHNHYTQKSLSLSLG
# Molecular target: FGFR/β-Klotho receptor complex
# Experiment: cell-based or functional assay
row,Binder,FGF21 activity EC50 (luciferase reporter)
1,B1,0.71 nM
2,B2,1.37 nM
3,B3,1.33 nM
4,B4,1.11 nM
5,B5,0.75 nM
6,B6,0.88 nM

# Molecular target: Glucagon receptor
# Experiment: cell-based or functional assay
row,Binder,GCGR agonist activity EC50 (luciferase reporter)
1,B1,1.38 nM
2,B2,1.22 nM
3,B3,1.23 nM
4,B4,1.69 nM
5,B5,9.55 nM
6,B6,7.64 nM

# Molecular target: T1, human GLP-1 receptor (human, UniProt P43220 24-463)
# Experiment: cell-based or functional assay
row,Binder,GLP-1R agonist activity EC50 (luciferase reporter)
1,B1,1.55 nM
2,B2,1.23 nM
3,B3,1.11 nM
4,B4,1.48 nM
5,B5,10.8 nM
6,B6,10.6 nM

# Molecular target: Glucagon receptor
# Experiment: cell-based or functional assay
# Remark: another data set of the same source
row,Binder,GCGR agonist activity EC50 (luciferase reporter)
1,B7,1.39 nM
2,B8,26.7 nM
3,B9,1.27 nM

# Molecular target: T1, human GLP-1 receptor
# Experiment: cell-based or functional assay
# Remark: another data set of the same source
row,Binder,GLP-1R agonist activity EC50 (luciferase reporter)
1,B7,1.47 nM
2,B8,18.5 nM
3,B9,1.41 nM
